The text below walks through data of paper doi:10.1101/2024.12.02.626503 (bioRxiv, 2024).

The experiment addresses CaM WT (UniProt P0DP23 1-149). The experiment is described as follows: fluorescence polarisation. A general note: In fluorescence polarisation assays a small probe gives low polarisation when free and higher when bound to something large.

The star is where a group is joined. 5‑TAMRA = CN(C)c1ccc2c(-c3ccc(C(=O)*)cc3C(=O)[O-])c3ccc(N(C)C)cc3[o+]c2c1

B1: 5-TAMRA-labeled CaV1.3 IQ peptide (peptide)
peptide: not shown
modifications: 5-TAMRA on the N-terminus; C-terminal amide (NH2)
Regarding B1, the binding result is listed as “binds”.

B2: 5-TAMRA-labeled CaV2.1 IQ peptide (peptide)
peptide: {5‑TAMRA}-TDLTVGKIYAAMMIMEYYRQSKAKKLQAMREEQD-NH2
SMILES: CC[C@H](C)[C@H](NC(=O)[C@H](CCCCN)NC(=O)CNC(=O)[C@@H](NC(=O)[C@@H](NC(=O)[C@H](CC(C)C)NC(=O)[C@H](CC(=O)O)NC(=O)[C@@H](NC(=O)c1ccc(-c2c3ccc(N(C)C)cc3[o+]c3cc(N(C)C)ccc23)c(C(=O)[O-])c1)[C@@H](C)O)[C@@H](C)O)C(C)C)C(=O)N[C@@H](Cc1ccc(O)cc1)C(=O)N[C@@H](C)C(=O)N[C@@H](C)C(=O)N[C@@H](CCSC)C(=O)N[C@@H](CCSC)C(=O)N[C@H](C(=O)N[C@@H](CCSC)C(=O)N[C@@H](CCC(=O)O)C(=O)N[C@@H](Cc1ccc(O)cc1)C(=O)N[C@@H](Cc1ccc(O)cc1)C(=O)N[C@@H](CCCNC(=N)N)C(=O)N[C@@H](CCC(N)=O)C(=O)N[C@@H](CO)C(=O)N[C@@H](CCCCN)C(=O)N[C@@H](C)C(=O)N[C@@H](CCCCN)C(=O)N[C@@H](CCCCN)C(=O)N[C@@H](CC(C)C)C(=O)N[C@@H](CCC(N)=O)C(=O)N[C@@H](C)C(=O)N[C@@H](CCSC)C(=O)N[C@@H](CCCNC(=N)N)C(=O)N[C@@H](CCC(=O)O)C(=O)N[C@@H](CCC(=O)O)C(=O)N[C@@H](CCC(N)=O)C(=O)N[C@@H](CC(=O)O)C(N)=O)[C@@H](C)CC
B2: the binding result is on record as “binds”.
